Target: *DsCDTCM, exported bifunctional cyclohexadienyl dehydratase-chorismate mutase fusion enzyme of Duganella sacchari (Duganella sacchari)
Assay: crystal structure

*DsCDTCM, exported bifunctional cyclohexadienyl dehydratase-chorismate mutase fusion enzyme of Duganella sacchari
stoichiometry N: 2

From article doi:10.1101/2023.03.13.532365
